# From the Immune Epitope Database (IEDB)
# Columns and labels:
# HLA-B*45:06 = test: IEDB peptide-MHC binding, purified MHC/competitive/fluorescence; filed as Kd, often an IC50 or EC50 that approximates it; ≥ and ≤ were set here for values at or beyond the usual limits of such assays; details: source organism: Escherichia coli K-12
# HLA-A*32:07 = test: as above; details: source organism: Escherichia coli K-12
# HLA-B*40:13 = test: as above; details: source organism: Escherichia coli K-12
# HLA-B*83:01 = test: as above; details: source organism: Escherichia coli K-12
# HLA-B*27:20 = test: as above; details: source organism: Escherichia coli K-12
# HLA-B*15:42 = test: as above; details: source organism: Escherichia coli K-12
# HLA-C*06:02 = test: IEDB peptide-MHC binding, purified MHC/direct/fluorescence; filed as Kd, often an IC50 or EC50 that approximates it; ≥ and ≤ were set here for values at or beyond the usual limits of such assays; details: source organism: Escherichia coli K-12
# HLA-B*73:01 = test: as above
# HLA-B*08:03 [1] = test: IEDB peptide-MHC binding, purified MHC/competitive/fluorescence; filed as Kd, often an IC50 or EC50 that approximates it; ≥ and ≤ were set here for values at or beyond the usual limits of such assays; details: source organism: Human immunodeficiency virus 1
# HLA-A*03:01 [2] = test: as above; details: source organism: Human immunodeficiency virus 1
# HLA-A*31:01 [3] = test: as above; details: source organism: Human immunodeficiency virus 1
# HLA-A*30:01 = test: as above; details: source organism: Human immunodeficiency virus 1
# HLA-A*26:03 [4] = test: as above; details: source organism: Human immunodeficiency virus 1
# HLA-A*26:02 = test: as above
# HLA-A*11:01 [5] = test: as above; details: source organism: Human immunodeficiency virus 1
# HLA-B*08:02 [6] = test: as above; details: source organism: Human immunodeficiency virus 1
# HLA-B*39:01 = test: as above; details: source organism: Cryptosporidium parvum Iowa II
# HLA-B*15:17 = test: as above; details: source organism: Cryptosporidium parvum Iowa II
# HLA-B*07:02 = test: IEDB peptide-MHC binding, purified MHC/direct/fluorescence; filed as Kd, often an IC50 or EC50 that approximates it; ≥ and ≤ were set here for values at or beyond the usual limits of such assays; details: source organism: Cryptosporidium parvum
# HLA-A*01:01 = test: as above; details: source organism: Cryptosporidium parvum
# HLA-B*15:09 = test: as above; details: source organism: Cryptosporidium parvum Iowa II
# HLA-B*08:03 [7] = test: as above; details: source organism: Cryptosporidium parvum Iowa II
# HLA-B*58:01 [8] = test: as above; details: source organism: Cryptosporidium parvum
# HLA-A*03:01 [9] = test: as above; details: source organism: Cryptosporidium parvum
# HLA-B*48:01 = test: as above; details: source organism: Cryptosporidium parvum
# HLA-A*31:01 [10] = test: as above; details: source organism: Cryptosporidium parvum
# HLA-B*27:02 = test: as above; details: source organism: Cryptosporidium parvum Iowa II
# HLA-A*68:02 = test: as above; details: source organism: Cryptosporidium parvum
# HLA-A*26:03 [11] = test: as above; details: source organism: Cryptosporidium parvum Iowa II
# HLA-A*11:01 [12] = test: as above; details: source organism: Cryptosporidium parvum
# HLA-B*18:01 = test: as above; details: source organism: Cryptosporidium parvum
# HLA-A*02:01 [13] = test: as above; details: source organism: Cryptosporidium parvum
# HLA-B*57:01 [14] = test: as above; details: source organism: Cryptosporidium parvum
# HLA-B*27:05 = test: as above; details: source organism: Cryptosporidium parvum
# HLA-B*08:02 [15] = test: as above; details: source organism: Cryptosporidium parvum Iowa II
# HLA-B*15:01 = test: as above; details: source organism: Cryptosporidium parvum
# HLA-A*26:01 = test: as above; details: source organism: Cryptosporidium parvum Iowa II
# HLA-A*69:01 = test: as above; details: source organism: Cryptosporidium parvum
# HLA-A*02:07 = test: IEDB peptide-MHC binding, purified MHC/competitive/radioactivity; filed as Kd, often an IC50 or EC50 that approximates it; ≥ and ≤ were set here for values at or beyond the usual limits of such assays; details: source organism: Homo sapiens
# HLA-A*29:02 = test: as above; details: source organism: Homo sapiens
# HLA-B*58:01 [16] = test: as above; details: source organism: Homo sapiens
# HLA-A*02:01 [17] = test: as above; details: source organism: Homo sapiens
# HLA-B*57:01 [18] = test: as above; details: source organism: Homo sapiens
# HLA-B*46:01 = test: IEDB peptide-MHC binding, purified MHC/direct/fluorescence; filed as Kd, often an IC50 or EC50 that approximates it; ≥ and ≤ were set here for values at or beyond the usual limits of such assays; details: source organism: Neogale vison
# HLA-B*15:02 = test: as above; details: source organism: Cryptosporidium parvum Iowa II
sequence,measurement,setting,value
RQWGMGFLL,Kd,HLA-B*45:06,≥ 5 µM
same,Kd,HLA-A*32:07,1.2 nM
same,Kd,HLA-B*40:13,≤ 1 nM
same,Kd,HLA-B*83:01,≥ 5 µM
same,Kd,HLA-B*27:20,≤ 0.1 nM
same,Kd,HLA-B*15:42,≥ 5 µM
same,Kd,HLA-C*06:02,1710 nM
same,Kd,HLA-B*73:01; source organism: Escherichia coli O157:H7,6 µM
IATLYCVHQK,Kd,HLA-B*08:03 [1],≥ 20 µM
same,Kd,HLA-A*03:01 [2],≥ 20 µM
same,Kd,HLA-A*31:01 [3],≥ 20 µM
same,Kd,HLA-A*30:01,≥ 5 µM
same,Kd,HLA-A*26:03 [4],≥ 20 µM
same,Kd,HLA-A*26:02; source organism: Human immunodeficiency virus 1,≥ 20 µM
same,Kd,HLA-A*11:01 [5],1700 nM
same,Kd,HLA-B*08:02 [6],≥ 20 µM
RKWGLDFCY,Kd,HLA-B*39:01,≥ 20 µM
same,Kd,HLA-A*26:02; source organism: Cryptosporidium parvum Iowa II,≥ 20 µM
same,Kd,HLA-B*15:17,≥ 20 µM
same,Kd,HLA-B*07:02,9 µM
same,Kd,HLA-A*01:01,≥ 20 µM
same,Kd,HLA-B*15:09,≥ 20 µM
same,Kd,HLA-B*08:03 [7],≥ 20 µM
same,Kd,HLA-B*58:01 [8],≥ 20 µM
same,Kd,HLA-A*03:01 [9],≥ 20 µM
same,Kd,HLA-B*48:01,≥ 20 µM
same,Kd,HLA-A*31:01 [10],≥ 20 µM
same,Kd,HLA-B*27:02,7 µM
same,Kd,HLA-A*68:02,≥ 20 µM
same,Kd,HLA-A*26:03 [11],≥ 20 µM
same,Kd,HLA-B*73:01; source organism: Cryptosporidium parvum,≥ 20 µM
same,Kd,HLA-A*11:01 [12],≥ 20 µM
same,Kd,HLA-B*18:01,≥ 20 µM
same,Kd,HLA-A*02:01 [13],≥ 20 µM
same,Kd,HLA-B*57:01 [14],≥ 20 µM
same,Kd,HLA-B*27:05,55.5 nM
same,Kd,HLA-B*08:02 [15],≥ 20 µM
same,Kd,HLA-B*15:01,2080 nM
same,Kd,HLA-A*26:01,≥ 20 µM
same,Kd,HLA-A*69:01,≥ 20 µM
KMKEIAEAY,Kd,HLA-A*02:07,≥ 53.4 µM
same,Kd,HLA-A*29:02,88.9 nM
same,Kd,HLA-B*58:01 [16],2030 nM
same,Kd,HLA-A*02:01 [17],≥ 78.1 µM
same,Kd,HLA-B*57:01 [18],2870 nM
same,Kd,HLA-B*46:01,446 nM
same,Kd,HLA-B*15:02,184 nM
